# Source: the RNAGym collection of RNA variant scans (doi:10.7554/elife.80360)
# B1: Hairpin Ribozyme (parent)
# chain: GUCCUCUUUCACGUGCGCGUGAAAGAGAGAAGUGAACCAGAGAAACACACGUUGUGGUAUAUUACCUGGUA
# Variants of: B1
# Experiment: self-cleavage, relative activity (ratio to wild type); higher = more cleavage; co-transcriptional
row,Variant,self-cleavage
1,C16A A22U,0.816
2,U14G A24C,0.887
3,G15U,1.08
4,G15A,0.906
5,G15C,1.03
6,C16G U63G,0.182
7,C16G U63A,0.15
8,G15C A30U,0.293
9,C16A G40C,0.157
10,C16A G40A,0.28
11,C16G U62C,0.213
12,C16G A24G,0.568
13,G15C C38U,0.6
14,C16G G69A,0.225
15,C16G G69U,0.196
16,G15A G25A,0.576
17,G15U G17A,1.05
18,C16G C50G,0.157
19,U14G A28U,0.39
20,G15A C46G,0.0897
21,G15A C46A,0.132
22,G15U A30G,0.122
23,G15U A30C,0.173
24,U14C U60G,0.727

row,Variant,self-cleavage
1,G15C U60G,0.466
2,U14G A64G,0.407
3,G15U C65U,0.33
4,C16A C65U,0.242
5,U14G A59G,0.121
6,G15U A64U,0.139
7,G15U G25U,0.778
8,G15C A31U,0.105
9,G15C A31G,0.692
10,G15A U20C,0.864
11,G15A U20A,0.847
12,C16A A23C,0.983
13,G15A U67A,0.188
14,G15C U33G,0.0645
15,G15C U33C,0.233
16,G15A G29U,0.0945
17,U14G A31U,0.119
18,U14G C48G,0.178
19,G15C A59G,0.104
20,C16A A31G,0.536
21,C16A G54U,0.595
22,C16A G54C,0.432
23,G15C A22C,0.846
24,G15C A22G,0.746

row,Variant,self-cleavage
1,G15C U62A,0.14
2,G15U U67G,0.364
3,U14G A22C,0.75
4,G15C C48G,0.109
5,G15U C38G,0.149
6,C16A C38G,0.114
7,C16G G57A,0.0803
8,G15C G56A,0.129
9,C16G A43U,0.157
10,C16A A36C,0.399
11,G15A A64C,0.171
12,G15A A64U,0.233
13,G15C C65A,0.928
14,G15C U63G,0.127
15,C16A G57U,0.242
16,C16A U60G,0.451
17,C16A U60C,0.836
18,C16A U60A,0.767
19,U14G U67G,0.243
20,G15A U62G,0.109
21,G15A U62A,0.177
22,G15C A45G,0.194
23,G15C A45U,0.191
24,G15C G40U,0.23

row,Variant,self-cleavage
1,G15C G40C,0.125
2,G15C G27A,0.555
3,G15C U70A,0.848
4,G15U A49G,0.539
5,G15C A71U,0.793
6,G15U C66U,0.574
7,G15C G57A,0.24
8,C16G G34C,1.22
9,C16G A59C,0.17
10,G15A A39C,0.508
11,G15A A39U,0.351
12,G15A A36C,0.815
13,G15A A36G,1.08
14,U14G A49C,0
15,G15C U67G,0.294
16,U14G A41U,1.05
17,G15A G34A,1.11
18,G15A G34U,1.26
19,G15A G57U,0.3
20,G15A C65A,0.863
21,C16A U53A,0.936
22,C16A U53G,0.877
23,G15A A31C,0.151
24,G15U A45G,0.184

row,Variant,self-cleavage
1,G15U A45C,0.169
2,G15U G56A,0.187
3,U14G G29C,0.169
4,G15U U53G,0.645
5,C16A A59U,0.212
6,C16G C66A,0.197
7,G15C G19U,0.953
8,G15C G19C,0.786
9,U14G U52C,0.966
10,U14G U52A,1.02
11,G15A C18G,0.886
12,U14G G68A,0.32
13,U14G G68U,0.333
14,G15U U60A,0.932
15,G15U U60G,0.57
16,C16A G25C,0.499
17,G15C A47C,0.295
18,U14C U70C,1.15
19,G15C G42C,0.369
20,G15U C50U,0.49
21,C16G A39C,0.374
22,G15A G21A,0.831
23,G15A G21C,0.798
24,U14G U55A,0.0772

row,Variant,self-cleavage
1,U14G U55C,0.286
2,C16A G56C,0.212
3,U14G U62G,0.106
4,U14G A44U,0.138
5,C16G G42C,0.152
6,G15A U60A,0.767
7,C16A U58C,0.937
8,G15U G40C,0.0954
9,G15C C66A,0.144
10,U14G A45U,0.147
11,G15U A35U,0.842
12,C16A C37U,0.519
13,C16G G17U,1.08
14,C16G C38G,0.191
15,C16G C38A,0.154
16,G15A U33G,0.136
17,C16A G42C,0.304
18,U14G C16U,1.06
19,U14G C16G,0.548
20,G15U G42U,0.369
21,C16A A44U,0.133
22,C16G G68U,0.132
23,C16G G68A,0.243
24,G15A A24U,0.688

row,Variant,self-cleavage
1,C16A G68A,0.305
2,U14G C46A,0.113
3,U14G C46U,0.21
4,U14G A36C,0.729
5,G15C A41G,1.04
6,G15C A41U,1.28
7,G15C A41C,1.28
8,U14G G40A,0.289
9,U14G G40U,0.2
10,C16G U70A,0.728
11,G15U C46A,0.167
12,G15A U70C,0.759
13,G15C G69A,0.414
14,G15C G69C,0.275
15,G15C A64U,0.186
16,U14G G42A,0.163
17,C16G G29A,0.202
18,C16G G29U,0.0825
19,C16A U55C,0.288
20,C16A A39U,0.364
21,C16A A39G,0.243
22,U14G C38G,0.119
23,C16A A24C,0.71
24,C16A A24G,0.763

row,Variant,self-cleavage
1,G15U A22C,0.681
2,G15U A22G,1.12
3,U14G G21U,0.625
4,G15C A43G,0.11
5,U14C U58G,0.545
6,C16G G54C,0.393
7,C16G A23G,0.751
8,G15C G21A,0.76
9,G15U U70G,0.873
10,G15C U58C,0.974
11,G15C U58A,0.751
12,U14G A47G,0.157
13,U14G G57C,0.0955
14,G15A C48G,0.0967
15,C16G A61C,0.2
16,G15A U53A,0.862
17,G15A U53G,0.687
18,G15A A28U,0.588
19,C16A U63A,0.132
20,C16A U63G,0.253
21,C16G A45G,0.126
22,C16G A44U,0.16
23,C16G A44C,0.0851
24,G15A A61G,0.18

row,Variant,self-cleavage
1,C16A A71C,1.1
2,C16A A71G,1.04
3,U14G G32C,0.0712
4,C16A U20C,0.956
5,G15U A41C,1.11
6,G15U A41U,1.41
7,C16G U53A,0.855
8,U14G G69A,0.303
9,C16A A43C,0.116
10,C16A A43G,0.118
11,U14G A35U,0.49
12,U14G A35G,0.715
13,U14G A35C,0.805
14,G15U G27U,0.35
15,G15U C16G,1.09
16,G15U G29U,0.124
17,G15A G17U,1.05
18,C16G,0.774
19,C16A,0.903
20,G15C A26G,1.03
21,G15A A45C,0.0834
22,G15A A45U,0.204
23,U14G C18A,0.941
24,U14G C18G,0.694

row,Variant,self-cleavage
1,G15C C46A,0.136
2,G15U U58A,0.831
3,U14G G51U,1.02
4,G15C C18A,1.18
5,C16G U33C,0.188
6,C16A G21A,0.67
7,C16A G21C,0.605
8,U14G A30G,0.0762
9,C16G C48U,0.154
10,U14G U60C,1.23
11,C16A C46G,0.143
12,C16A C46A,0.197
13,C16A U33A,0.17
14,G15C G68A,0.324
15,G15A C66A,0.129
16,G15U G21C,0.829
17,G15U G21A,0.872
18,G15U G21U,0.868
19,C16A A64G,0.455
20,G15U G34C,1.33
21,G15U G34A,1.33
22,U14G G54C,0.315
23,U14G G54U,0.491
24,G15U A31U,0.232

row,Variant,self-cleavage
1,G15U A31G,0.795
2,U14G G15A,0.932
3,C16G A41C,1.12
4,C16G A22G,0.828
5,C16A A49C,0.0771
6,U14G C65G,0.213
7,U14G U53C,0.925
8,G15U G57C,0.128
9,C16G C46G,0.183
10,C16G C46A,0.224
11,C16G U67C,0.155
12,C16G U67G,0.191
13,C16G A35G,0.797
14,U14G G27A,0.189
15,C16A C50U,0.309
16,C16A C50A,0.361
17,G15C C16A,1.1
18,G15U A61U,0.182
19,G15U A61G,0.164
20,C16A G51U,0.861
21,G15A G54U,0.737
22,G15A U52C,0.916
23,C16G A47U,0.06
24,C16G G40U,0.173

row,Variant,self-cleavage
1,C16G G40C,0.143
2,G15U A23C,1.14
3,G15U A23U,0.918
4,G15U A23G,0.87
5,C16G U58G,0.749
6,U14G A23U,0.68
7,U14G A23C,0.754
8,U14G A26G,0.781
9,C16A U62A,0.199
10,G15U U63C,0.14
11,G15U U63G,0.108
12,C16G U55G,0.247
13,C16A A35G,1.06
14,C16G A49C,0.117
15,C16A G69C,0.205
16,G15U A44G,0.0895
17,G15U A44U,0.174
18,C16A C48A,0.123
19,G15A G42C,0.294
20,G15A G42U,0.301
21,U14G C50A,0.307
22,C16G G21C,0.285
23,C16G G21A,0.515
24,U14G G19C,0.842

row,Variant,self-cleavage
1,U14G G19A,0.651
2,C16A G19U,0.862
3,C16G A28G,0.959
4,C16G A28U,0.483
5,G15U A47U,0.215
6,G15U A47C,0.324
7,G15U G19C,1
8,G15A G27A,0.541
9,G15C G54U,0.647
10,G15A A23G,0.862
11,G15A G32C,0.174
12,G15C G25C,0.687
13,G15A A71C,1.29
14,G15A A71G,0.943
15,G15U A59U,0.0728
16,U14G G56A,0.103
17,U14G G34A,1.05
18,C16G G32A,0.179
19,U14G A39C,0.393
20,G15A A41G,0.92
21,C16A G17C,0.85
22,C16A G17A,1.02
23,G15U A39C,0.7
24,G15U G54A,0.695

row,Variant,self-cleavage
1,G15U G54U,0.632
2,C16A U52C,0.841
3,C16A U52A,0.982
4,U14C U67G,0.344
5,U14C U67A,0.151
6,G15C A44G,0.146
7,C16G C37U,0.346
8,G15A G68C,0.219
9,G15A G68A,0.362
10,C16G A26U,0.293
11,G15U A36C,0.839
12,G15U A36U,0.606
13,G15C C50G,0.184
14,G15C C50U,0.47
15,G15C C50A,0.169
16,C16G G56C,0.2
17,U14G U58G,0.464
18,C16A A26C,0.488
19,G15C U52A,1.19
20,G15C U52C,1.05
21,U14G U70A,0.823
22,C16A C66A,0.108
